Measured values taken from paper PMC4951284.

Key:
[1] = target: VEGFR2 recombinant protein, intracellular domain (aa 789 to end) (UniProt P35968); experiment: far-Western, overlay or dot blot; 0.5 to 8.0 ug VEGFR2 (aa 789 to end) on SDS-PAGE, transferred to PVDF; overlaid with V5-tagged L-FABP (1 ug/ml) for 12 hours; anti-V5 detection; Kd by non-linear regression (GraphPad Prism 5)
VEGFR2 (Homo sapiens) [2] = target: VEGFR2 (Homo sapiens) (UniProt P35968); experiment: SPR; conditions: cited from earlier work
VEGFR2 (Homo sapiens) [3] = target: VEGFR2 (Homo sapiens) (UniProt P35968); experiment: ITC; conditions: cited from earlier work

Kd [1] [µM] | Substance | Kd (VEGFR2 (Homo sapiens) [2]) [µM] | Kd (VEGFR2 (Homo sapiens) [3]) [µM]
0.00025 | Liver fatty acid-binding protein (L-FABP), V5-tagged recombinant protein expressed in Hus cells (from UniProt P07148 1-127) (natural protein) |  | 
 | VEGF-A (from UniProt P15692) | 0.0367 | 0.018
